{
  "source": "paper PMC9860497",
  "biological_target": "14-3-3γ (UniProt P61982)",
  "experiment": "anti-Flag co-IP, anti-HA blot",
  "conditions": "reference: wild-type HA-TMCC3-D1; sites S15",
  "data": [
    {"substance": "TMCC3 TMCC3-D1, 1-210 (from UniProt Q8R310) HA-TMCC3-D1-S15A", "values": [
      {"measurement": "binding against the reference", "result": "weaker"}
    ]}
  ]
}
